System: HCT-15 tumor-bearing mice
Assay: In-vivo and ex-vivo fluorescence imaging of EGF-Cy5.5, C-probe, EGF-probe
Description: The biodistribution of the EGF-probe intravenously administered to mice having HCT-15, HT29, Lovo or HCT-8 tumors was evaluated. First of all, 6-week-old Balb/c-nude mice (Nara-Biotec, Gyeonggi-do, Korea) were prepared and each cell was subcutaneously inoculated into the nude mice at the right flank at a concentration of 2×10^6 cells/mouse to generate tumors. […] At 24 hours after the administration of the EGF-probe, the mouse was imaged using an IVIS fluorescence imaging system. […] IVIS fluorescence imaging was conducted at 24 hours after the administration. Major organs and tumors were obtained and imaged with an IVIS imaging system. The fluorescence intensity of the organs and tumors was analyzed using the Living Image 2.50 software. […] The tumor tissue sections were counter-stained with DAPI and visualized with a confocal microscope.

B1: EGF-Cy5.5 (conjugate, UniProt P01133 23-1207, looked up)
Pro-epidermal growth factor: PQHWSCPEGTLAGNGNSTCVGPAPFLIFSHGNSIFRIDTEGTNYEQLVVDAGVSVIMDFHYNEKRIYWVDLERQLLQRVFLNGSRQERVCNIEKNVSGMAINWINEEVIWSNQQEGIITVTDMKGNNSHILLSALKYPANVAVDPVERFIFWSSEVAGSLYRADLDGVGVKALLETSEKITAVSLDVLDKRLFWIQYNREGSNSLICSCDYDGGSVHISKHPTQHNLFAMSLFGDRIFYSTWKMKTIWIANKHTGKDMVRINLHSSFVPLGELKVVHPLAQPKAEDDTWEPEQKLCKLRKGNCSSTVCGQDLQSHLCMCAEGYALSRDRKYCEDVNECAFWNHGCTLGCKNTPGSYYCTCPVGFVLLPDGKRCHQLVSCPRNVSECSHDCVLTSEGPLCFCPEGSVLERDGKTCSGCSSPDNGGCSQLCVPLSPVSWECDCFPGYDLQLDEKSCAASGPQPFLLFANSQDIRHMHFDGTDYGTLLSQQMGMVYALDHDPVENKIYFAHTALKWIERANMDGSQRERLIEEGVDVPEGLAVDWIGRRFYWTDRGKSLIGRSDLNGKRSKIITKENISQPRGIAVHPMAKRLFWTDTGINPRIESSSLQGLGRLVIASSDLIWPSGITIDFLTDKLYWCDAKQSVIEMANLDGSKRRRLTQNDVGHPFAVAVFEDYVWFSDWAMPSVMRVNKRTGKDRVRLQGSMLKPSSLVVVHPLAKPGADPCLYQNGGCEHICKKRLGTAWCSCREGFMKASDGKTCLALDGHQLLAGGEVDLKNQVTPLDILSKTRVSEDNITESQHMLVAEIMVSDQDDCAPVGCSMYARCISEGEDATCQCLKGFAGDGKLCSDIDECEMGVPVCPPASSKCINTEGGYVCRCSEGYQGDGIHCLDIDECQLGEHSCGENASCTNTEGGYTCMCAGRLSEPGLICPDSTPPPHLREDDHHYSVRNSDSECPLSHDGYCLHDGVCMYIEALDKYACNCVVGYIGERCQYRDLKWWELRHAGHGQQQKVIVVAVCVVVLVMLLLLSLWGAHYYRTQKLLSKNPKNPYEESSRDVRSRRPADTEDGMSSCPQPWFVVIKEHQDLKNGGQPVAGEDGQAADGSMQPTSWRQEPQLCGMGTEQGCWIPVSSDKGSCPQVMERSFHMPSYGTQTLEGGVEKPHSLLSANPLWQQRALDPPHQMELTQ
modifications: Pro-epidermal growth factor Cy5.5 dye label
- in-vivo fluorescence imaging (tumor and background signals) (5 mg/kg intravenous, 24 hours, IVIS): strong fluorescence signal at the tumor site but nonspecific background signals were observed throughout the body
- fluorescence of tumor tissue sections (cryosections, confocal): observed clearly

Source: US20240159744A1, “COLON CANCER DIAGNOSIS OR DETECTION COMPOSITION FOR PREDICTING RESPONSE TO DRUG, AND COMPOSITION FOR PREVENTING OR TREATING COLON CANCER” (priority 2020, published 2024)
